Results on 167 variants are retold here after the RNAGym collection of RNA variant scans (doi:10.1073/pnas.2313332121).

B1: TPR 5TU (parent)
chain: GGAUCUUCUCGAUCUAACAAAAAAGACAAAUCUGCCACAAAGCUUGAGAGCAUCUUCGGAUGCAGAGGCGGCAGCCUUCGGUGGCGCGAUAGCGCCAACGUUCUCAACUAUGACACGCAAAACGCGUGCUCCGUUGAAUGGAGUUUAUCAUG

This sample holds only a part of the variants without activity.

In the series the parent is B1. As to the kind of experiment: polymerase ribozyme fitness, log enrichment relative to wild type (log ratio); higher = more active; in vitro selection for triplet polymerase activity. An outline of the steps:
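Mutant libraries were PCR-built and transcribed for each subunit of a heterodimeric triplet polymerase ribozyme and selected for one round in triplicate at −7 °C, frozen, before gel excision of extended constructs and streptavidin-bead capture. Input and output libraries were Illumina-sequenced, keeping genotypes with ≥10 input reads and ≥1 read per output. Fitness is a logarithmic ratio of genotype to wild-type enrichment, in base 2, using inverse-variance-weighted replicate averages.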
With C85G G136A, the “polymerase ribozyme fitness (log ratio)” value is -1.31.

As to C85U A89C, the “polymerase ribozyme fitness (log ratio)” value was -1.13.

For G84A U148G, the “polymerase ribozyme fitness (log ratio)” value is -3.25. The figure for C85G C93A is at most -4.2; for G84U G124C G140U U146C it is at most -4.2.

With G83U A120U G141C, the “polymerase ribozyme fitness (log ratio)” value was -0.804. C85A G143U: the “polymerase ribozyme fitness (log ratio)” value was -2.37. With C85A G143C the figure was -3.01; with C85A A142U, -1.59. Consider G84U C95G A122U G152C, for which the “polymerase ribozyme fitness (log ratio)” value is -3.55. With C85A A97U G152A, the “polymerase ribozyme fitness (log ratio)” value is at most -4.2. The figure for C85A C87U U101G G136U is at most -4.2. As for G84U U145A, the “polymerase ribozyme fitness (log ratio)” value is -1.53.

Take G83U G133C: the “polymerase ribozyme fitness (log ratio)” value was -2.09. The figure for G83U A110U is -4.17; for C85G C118U C132U it is -3.11.

As for G83U G126A U148A, the “polymerase ribozyme fitness (log ratio)” value was at most -4.2.

Consider C85A C129U, for which the “polymerase ribozyme fitness (log ratio)” value is -0.397. In the case of G83U C123A, the “polymerase ribozyme fitness (log ratio)” value is -0.709.

With G83U C95U, the “polymerase ribozyme fitness (log ratio)” value is -1.53. The figure for G83U C95G is -1.54; for C85A C118G it is -0.907; for C85A C118U it is -0.342. With G84C U134G the figure was at most -4.2; with C85U A98G A113U U135C, -3.59.

As for G83U U101A A115U G117U, the “polymerase ribozyme fitness (log ratio)” value is at most -4.2. For the variant C85U A113G, the “polymerase ribozyme fitness (log ratio)” value is -1.86.

As for C85A G136A, the “polymerase ribozyme fitness (log ratio)” value is -1.05. For the variant G84A G140A, the “polymerase ribozyme fitness (log ratio)” value is -3.27. As for G84A G140U, the “polymerase ribozyme fitness (log ratio)” value is -2.64. As to G84A G86U C95A C99U U101A C123G, the “polymerase ribozyme fitness (log ratio)” value is at most -4.2. With C85G G92U A138U U145A the figure was at most -4.2; with G84C A97G, -1.95. The figure for C85A C87U is at most -4.2; for C85A U102G A121G A122C it is at most -4.2. Consider G84U G117U, for which the “polymerase ribozyme fitness (log ratio)” value was -1.61.

Turning to G83U C95U C118U U144A, the “polymerase ribozyme fitness (log ratio)” value is -3.4. The figure for C85G C118A A142U is -2.93; for G83U A89C it is -0.953; for G84U A106G U109A A121U C131A G141A U145A it is at most -4.2. G84A A121C U127G: the “polymerase ribozyme fitness (log ratio)” value is -2.56.

G84U C103U: the “polymerase ribozyme fitness (log ratio)” value was -1.74. Turning to C85U A89C C93U C149U, the “polymerase ribozyme fitness (log ratio)” value was -3.26. Turning to G84A A97U U134A, the “polymerase ribozyme fitness (log ratio)” value was -3.23. The figure for C85G C114A A150C is at most -4.2; for C85G A122G C149A it is at most -4.2. Turning to C85G G88A, the “polymerase ribozyme fitness (log ratio)” value was -4.01. With G84A G100A A106G A113U G117U C123U A142C the figure was at most -4.2; with C85A U139G, -1.11. Regarding G83U A89G C103A C108G U134C A142C, the “polymerase ribozyme fitness (log ratio)” value is at most -4.2. With C85G U134A, the “polymerase ribozyme fitness (log ratio)” value was -3.86.

For C85G G141U U146A, the “polymerase ribozyme fitness (log ratio)” value was -0.46.

As for G84A C118U, the “polymerase ribozyme fitness (log ratio)” value was -0.13. For G84U U148A, the “polymerase ribozyme fitness (log ratio)” value is at most -4.2. With G83U C129A the figure was -4.02; with C85G A122U, -1.53; with C85A G141C, -1.46.

Consider C85A G141A, for which the “polymerase ribozyme fitness (log ratio)” value is -1.85. With C85G U130G the figure was at most -4.2; with C85A C103A C149U, -3.27; with C85U A120G G124U G143C, -3.46. The figure for C85A C87A C108U A121U U135C G141A U145A is at most -4.2; for G83C U104G C116U it is -1.3. With C85G C96U A113U the figure was -3.8; with G84A A115U G126A, -4.17; with C85G C131G G152U, at most -4.2. As to C85U A115U C118A A120G, the “polymerase ribozyme fitness (log ratio)” value is -3.37. As for C85G G100A, the “polymerase ribozyme fitness (log ratio)” value was at most -4.2. The figure for G84A A119U is -0.787; for C85A A120C A121U U130C U151G it is at most -4.2.

Consider G84A A97U U146C, for which the “polymerase ribozyme fitness (log ratio)” value was -0.418. The figure for G83U A89G C95U C103G is at most -4.2; for C85G U144A it is -2.27.

On to G84A A113U G140A, for which the “polymerase ribozyme fitness (log ratio)” value is at most -4.2. With G84U G86A U90A G100A the figure was at most -4.2; with C85A C116G, -0.2. As to C85A C103A A147G, the “polymerase ribozyme fitness (log ratio)” value is at most -4.2. Regarding G84U C116A, the “polymerase ribozyme fitness (log ratio)” value was -0.432. As to G83U A98U C105U, the “polymerase ribozyme fitness (log ratio)” value is -0.156. With C85G G133C U135C the figure was at most -4.2; with C85G C125A U144A, -3.57; with G83C U148A, -3.1.

As for C85G U102C G141U, the “polymerase ribozyme fitness (log ratio)” value was -3.43. The figure for C85A U130A is -2.45; for C85U A91C C105U it is at most -4.2; for G83U G140U G152U it is -3.93.

As for C85G A115U A121G A142G U144G, the “polymerase ribozyme fitness (log ratio)” value was at most -4.2. With G84C the figure was -1.76; with G84U, -1.91; with G84A, -0.547. For the variant G84A G92C, the “polymerase ribozyme fitness (log ratio)” value was -3.25.

Turning to G84C G92U A150U, the “polymerase ribozyme fitness (log ratio)” value was -2.39. The figure for C85G C125A is -2.37; for C85G C132G it is at most -4.2; for C85G G92C A121C C132U U146A it is at most -4.2. The figure for G84U G117U A121G is -1.75. With G83U A120C G141A the figure was -0.169; with G84U A89U G126U, -1.58; with G83U C87U A89C G141A A142G, at most -4.2. Take C85A C87U A98C: the “polymerase ribozyme fitness (log ratio)” value was -3.62. With C85U A120G the figure was -1.65; with G84A U127C, -1.91; with G84A A91U U102G U144A, at most -4.2. With G84U C96U A122G C149G the figure was at most -4.2; with G84U U104G A115C, -3.36.

For C85A A119U, the “polymerase ribozyme fitness (log ratio)” value was -2.98. With G84A G128U the figure was -3.84. G84A A98G: the “polymerase ribozyme fitness (log ratio)” value was -2.7. C85G C114G G141U: the “polymerase ribozyme fitness (log ratio)” value is -4.17. Regarding G84A G88A U148G, the “polymerase ribozyme fitness (log ratio)” value was at most -4.2. Turning to G83U A122C G133C A147C, the “polymerase ribozyme fitness (log ratio)” value was -2.76. With G84A A89U G136U the figure was -2.91; with C85G C116A, -0.515. The figure for G84U U144G is -0.698. C85U A89U A106G C125G: the “polymerase ribozyme fitness (log ratio)” value is -1.15.

On to C85A G117C C118A A147U, for which the “polymerase ribozyme fitness (log ratio)” value was -0.0649.

Regarding C85A G126U, the “polymerase ribozyme fitness (log ratio)” value was -0.409. The figure for C85A G126C is -0.131; for G84U U135A it is -2.85; for G83U it is -0.478. Take G84U C96A: the “polymerase ribozyme fitness (log ratio)” value is -2.84.

Take G83U A121U: the “polymerase ribozyme fitness (log ratio)” value is -0.341. Regarding C85A G152C, the “polymerase ribozyme fitness (log ratio)” value is -2.88. With C85A G152A the figure was -3.87.

Consider G84A G133C, for which the “polymerase ribozyme fitness (log ratio)” value is -1.78.

Regarding G84A C95A U104C, the “polymerase ribozyme fitness (log ratio)” value is -0.367.

As for G84A U90A A121U, the “polymerase ribozyme fitness (log ratio)” value was at most -4.2. With G84A U139G the figure was -0.68. With G84A U102G A122U the figure was -2.74; with C85A C96U A119C, -0.783; with G84A G136U, -2.81. G84U G133A: the “polymerase ribozyme fitness (log ratio)” value is at most -4.2. With C85G A119G, the “polymerase ribozyme fitness (log ratio)” value was -1.7. Consider C85G A119C, for which the “polymerase ribozyme fitness (log ratio)” value is -2.45.

Take C85U A98U: the “polymerase ribozyme fitness (log ratio)” value was -1.49. With G83U A97G A110U G117U the figure was -3.7; with C85A A137C, -4.13. In the case of G84U C95U G143C, the “polymerase ribozyme fitness (log ratio)” value is -3.33. With G84U C118U the figure was -1.91.

On to C85U A98U U139A, for which the “polymerase ribozyme fitness (log ratio)” value was at most -4.2. C85G C114G: the “polymerase ribozyme fitness (log ratio)” value is -3.8. The figure for G83U C95G G124U U148C is at most -4.2; for G84C G126C it is -1.54; for G84U U101G G143U it is at most -4.2.

As to G84U U127G, the “polymerase ribozyme fitness (log ratio)” value was -3.43. Take C85A A121U U127C: the “polymerase ribozyme fitness (log ratio)” value was -1.47. With G83U C114G A115U A119U the figure was at most -4.2; with C85G A106C G141U G143U U151A, at most -4.2.

Regarding C85G G94A G117U G124U U135G, the “polymerase ribozyme fitness (log ratio)” value is -3.69. As for G84C G94A, the “polymerase ribozyme fitness (log ratio)” value was -4.07. With G84A A91U the figure was at most -4.2; with G84U A120U, -2.07; with C85A A119U A122U G141A, 0.358. Regarding C85A A115C, the “polymerase ribozyme fitness (log ratio)” value was -1.64. With G83C U104G the figure was -2.14.

Regarding C85G C118G, the “polymerase ribozyme fitness (log ratio)” value is -2.62. With C85G G133C the figure was -2.86; with C85G C87G A98U A137G U144C, at most -4.2. Consider C85G U101G G128U, for which the “polymerase ribozyme fitness (log ratio)” value was -4.03.

With C85A C95A, the “polymerase ribozyme fitness (log ratio)” value is -0.893.

For the variant C85G A107U, the “polymerase ribozyme fitness (log ratio)” value was at most -4.2. The figure for C85G U139A is -4.19. With C85A C125G the figure was -1.13.

In the case of G84U C99U G141C, the “polymerase ribozyme fitness (log ratio)” value is -2.46. As for C85G G141A, the “polymerase ribozyme fitness (log ratio)” value was -2.85.

For the variant G83U C96U, the “polymerase ribozyme fitness (log ratio)” value is -0.875. The figure for C85G C129G is -4.11.
